Data set [1] addresses T1, Rv3802 (Mycobacterium tuberculosis, UniProt O53581).
T1 construct: gene cut6
Put plainly: […]; TLC of […]-palmitoyl-CoA hydrolysis. The class given is biochemical.

Data set [2] relates to CCCCCCCCCCCCCCCC(=O)SCCNC(=O)CCNC(=O)[C@H](O)C(C)(C)COP(=O)(O)OP(=O)(O)OC[C@H]1O[C@@H](n2cnc3c(N)ncnc32)[C@H](O)[C@@H]1OP(=O)(O)O. Put plainly: purified protein.
The test system of data set [3] is CCCCCCCCCC(=O)SCCNC(=O)CCNC(=O)[C@H](O)C(C)(C)COP(=O)(O)OP(=O)(O)OC[C@H]1O[C@@H](n2cnc3c(N)ncnc32)[C@H](O)[C@@H]1OP(=O)(O)O. Put plainly: purified protein.

T1 sequence (O53581 37-336): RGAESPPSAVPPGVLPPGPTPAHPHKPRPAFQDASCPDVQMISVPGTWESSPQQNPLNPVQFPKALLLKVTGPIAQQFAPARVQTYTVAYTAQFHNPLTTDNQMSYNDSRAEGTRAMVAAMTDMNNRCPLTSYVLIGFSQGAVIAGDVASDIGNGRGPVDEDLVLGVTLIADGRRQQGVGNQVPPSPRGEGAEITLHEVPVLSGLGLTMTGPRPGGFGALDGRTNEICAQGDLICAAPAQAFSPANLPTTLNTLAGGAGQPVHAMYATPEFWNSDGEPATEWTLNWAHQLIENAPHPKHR

The compound `CCCCCCCCCCC[C@@H](C[C@@H]1OC(=O)[C@H]1CCCCCC)OC(=O)[C@H](CC(C)C)NC=O` [THL, tetrahydrolipstatin] displayed a Ki in data set [1] of 5 nM.
With “Rv3802 (Mycobacterium tuberculosis H37Rv)”, the Km in data set [2] was found to be 17 µM. Also, in data set [3], the Km was found to be 2280 µM, the catalytic constant (kcat) is 0.0845 ± 0.0253 s⁻¹ and the specificity constant (kcat/Km) turned out to be 37 ± 11.1 M⁻¹ s⁻¹.

The record behind these values is publication PMC2625445, “Mycobacterium tuberculosis Rv3802c Encodes a Phospholipase/Thioesterase and Is Inhibited by the Antimycobacterial Agent Tetrahydrolipstatin” (PLoS ONE, 2009).
